# According to the supplement of paper PMC10567573:
# B1: PBXIP1 (parent)
# chain: LQQLRARLQGLEADCVRGPDGVCL
# Variants of: B1
# Assay: protein stability index of a GFP-peptide fusion (GPS, HEK-293T) (PSI 1-6); higher = more stable
# Settings: c terminus: a fixed tail appended
# 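Also: lentivirally expressed fusions sorted by FACS into six bins by GFP to DsRed ratio, PSI derived from sequencing read proportions per bin multiplied by bin number.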
row,Variant,protein stability index
1,SQQLRARLQGLEADCVRGPDGVCL [L1S],4.1
2,EQQLRARLQGLEADCVRGPDGVCL [L1E],5.29
3,TQQLRARLQGLEADCVRGPDGVCL [L1T],3.66
4,QQQLRARLQGLEADCVRGPDGVCL [L1Q],3.83
5,VQQLRARLQGLEADCVRGPDGVCL [L1V],2.52
6,HQQLRARLQGLEADCVRGPDGVCL [L1H],3.85
7,LQQLRARLQGLEANCVRGPDGVCL [D14N],1.75
8,LQQLRARLQGLEAPCVRGPDGVCL [D14P],2.1
9,LQQLRARLQGLEAGCVRGPDGVCL [D14G],1.15
10,LQQLRARLQGLEAWCVRGPDGVCL [D14W],1.32
11,LQQLRARLQGLEAECVRGPDGVCL [D14E],2.24
12,LQQLRARLQGLEADCVRGFDGVCL [P19F],1.92
13,LQQLRARLQGLEADCVRGRDGVCL [P19R],1.41
14,LQQLRARLQGLEADCVRGHDGVCL [P19H],2.62
15,LQQLRARLQGLEADCVRGIDGVCL [P19I],2.58
16,LQQLRARLWGLEADCVRGPDGVCL [Q9W],1.86
17,LQQLRARLAGLEADCVRGPDGVCL [Q9A],1.43
18,LQQLRARLGGLEADCVRGPDGVCL [Q9G],2.28
19,LQQLRARLKGLEADCVRGPDGVCL [Q9K],1.87
20,LQQLRARLQGLEADCVRGPDAVCL [G21A],1.28
21,LQQLRARLQGLEADCVRGPDWVCL [G21W],2.07
22,LQQLRARLQGLYADCVRGPDGVCL [E12Y],2.73
23,LQQLRARLQGLPADCVRGPDGVCL [E12P],1.8
24,LQQLRARLQGLDADCVRGPDGVCL [E12D],2.23

row,Variant,protein stability index
1,LKQLRARLQGLEADCVRGPDGVCL [Q2K],1.38
2,LQQLRARLQGLEADCVFGPDGVCL [R17F],2.12
3,LQQLRARLQGLEADCVKGPDGVCL [R17K],1.86
4,LQQLRARLQGLEADCVYGPDGVCL [R17Y],2.47
5,LQQLRARLQGLEADCVTGPDGVCL [R17T],3.19
6,LQQLRARLQGLEADIVRGPDGVCL [C15I],1.87
7,LQQLRARLQGLEADNVRGPDGVCL [C15N],1.95
8,LQQLRARLQGLEADTVRGPDGVCL [C15T],2.18
9,LQQLRARLQGLEADWVRGPDGVCL [C15W],2
10,LQQLRARLQGLEADHVRGPDGVCL [C15H],1.81
11,LQQLRARLQGLEADLVRGPDGVCL [C15L],2.5
12,LQQLRARLQGLEADCVRGPYGVCL [D20Y],1.26
13,LQQLRARLQGLEADCVRGPVGVCL [D20V],1.8
14,LQQLRARLQGLEADCVRGPMGVCL [D20M],1.53
15,LQQLRARLQGLEADCVRGPDGLCL [V22L],1.46
16,LQQLRARLQGLEADCVRGPDGICL [V22I],1.96
17,LQQLRARLQGLEADCVRGPDGYCL [V22Y],1.52
18,LQQLRARLQGLEADCVRGPDGACL [V22A],2.03
19,LQQLRARLQGLEADCVRGPDGVCQ [L24Q],3.1
20,LQQLRARLQGLEADCVRGPDGVCH [L24H],2.97
21,LQQLRARLQGLEADCVRGPDGVCR [L24R],2.65
22,LQQLRARLQGLEADCVRGPDGVCP [L24P],2.79
23,LQQLRARNQGLEADCVRGPDGVCL [L8N],3.94
24,LQQLRARLQGLEQDCVRGPDGVCL [A13Q],3.12

row,Variant,protein stability index
1,LQQLRARLQGLECDCVRGPDGVCL [A13C],2.08
2,LQQLRARLQGLEEDCVRGPDGVCL [A13E],2.97
3,LQQLNARLQGLEADCVRGPDGVCL [R5N],2.87
4,LQQLHARLQGLEADCVRGPDGVCL [R5H],2.61
5,LQQLGARLQGLEADCVRGPDGVCL [R5G],2.78
6,LQQLSARLQGLEADCVRGPDGVCL [R5S],2.76
7,LQQLDARLQGLEADCVRGPDGVCL [R5D],4.08
8,LQQLRARLQGLEADCVRKPDGVCL [G18K],2.27
9,LQQLRARLQGLEADCVRPPDGVCL [G18P],1.78
10,LQQLRARLQGLEADCVRDPDGVCL [G18D],3.74
11,LQQLRARLQGLEADCVRQPDGVCL [G18Q],2.9
12,LQQLRARLQQLEADCVRGPDGVCL [G10Q],2.53
13,LQQLRARLQILEADCVRGPDGVCL [G10I],1.65
14,LQILRARLQGLEADCVRGPDGVCL [Q3I],1.68
15,LQRLRARLQGLEADCVRGPDGVCL [Q3R],3.08
16,LQPLRARLQGLEADCVRGPDGVCL [Q3P],3.53
17,LQQLRARLQGLEADCTRGPDGVCL [V16T],2.51
18,LQQLRARLQGLEADCHRGPDGVCL [V16H],1.74
19,LQQLRAKLQGLEADCVRGPDGVCL [R7K],2.28
20,LQQLRAFLQGLEADCVRGPDGVCL [R7F],2.09
21,LQQLRASLQGLEADCVRGPDGVCL [R7S],2.72
22,LQQLRAGLQGLEADCVRGPDGVCL [R7G],3.55
23,LQQLRANLQGLEADCVRGPDGVCL [R7N],2.93
24,LQQLRMRLQGLEADCVRGPDGVCL [A6M],1.36

row,Variant,protein stability index
1,LQQLRPRLQGLEADCVRGPDGVCL [A6P],3.61
2,LQQLRDRLQGLEADCVRGPDGVCL [A6D],2
3,LQQLRWRLQGLEADCVRGPDGVCL [A6W],3.19
4,LQQLRYRLQGLEADCVRGPDGVCL [A6Y],2.03
5,LQQLRNRLQGLEADCVRGPDGVCL [A6N],2.19
6,LQQLRFRLQGLEADCVRGPDGVCL [A6F],1.95
7,LQQLRARLQGWEADCVRGPDGVCL [L11W],2.78
8,LQQLRARLQGIEADCVRGPDGVCL [L11I],1.93
9,LQQLRARLQGAEADCVRGPDGVCL [L11A],2.46
10,LQQLRARLQGDEADCVRGPDGVCL [L11D],4.28
11,LQQWRARLQGLEADCVRGPDGVCL [L4W],2.65
12,LQQNRARLQGLEADCVRGPDGVCL [L4N],3.83
13,LQQTRARLQGLEADCVRGPDGVCL [L4T],3.18
14,LQQVRARLQGLEADCVRGPDGVCL [L4V],1.81
15,LQQCRARLQGLEADCVRGPDGVCL [L4C],1.96
16,LQQLRARLQGLEADCVRGPDGVKL [C23K],2.03
17,LQQLRARLQGLEADCVRGPDGVYL [C23Y],2.29
18,LQQLRARLQGLEADCVRGPDGVEL [C23E],2.98
19,LQQLRARLQGLEADCVRGPDGVPL [C23P],2.52
20,LQQLRARLQGLEADCVRGPDGVLL [C23L],2.48
21,LQQLRARLQGLEADCVRGPDGVHL [C23H],2.66
22,LQQLRARLQGLEADCVRGPDGVQL [C23Q],2.39
